Here are results for one molecule from patent US20110294873A1, “Gene Transfer Vectors Comprising At Least One Isolated DNA Molecule Having Insulator Or Boundary Properties And Methods To Identify The Same” (UNIVERSITÉ DE LAUSANNE, priority 2008, published 2011).

This series has as its system HeLa cells. As to the kind of experiment: Neomycin (G418) resistant colony insulator assay in HeLa cells. The series is classed as cell-based, human. The conditions noted are these: element between enhancer and minimal promoter/neo, 2 weeks G418. The method, then:
For experimental convenience, Applicants wanted to validate the cHS4 enhancer-blocking activity in HeLa cells (top bars). Using the same approach, the pJC5-4 deriving constructs were stably transfected in HeLa cells. The cHS4 was able to insulate the reporter gene from the LCR activation of nearly 15-fold.
The capacity of the cHS4 to block the Fr-MLV LTR strong enhancer was assessed using the same system in HeLa cells. Additional plasmids were constructed, replacing the β-globin LCR element by the Fr-MLV LTR in both orientations.
FIG. 20. Assessment of the insulator activity of multimerized CTF binding sites using the commonly-used neomycin-resistance insulator assay. The number of neomycin resistant colonies were determined as in FIGS. 15 and 16 after 2 weeks of G418 selection of HeLa cells transfected using the indicated reporter constructs. […]
(A) Schematic representation of the vectors used for the insulator assay based on the quantitation of neomycin-resistant colonies. […] The level of expression of that reporter gene is assessed by the number of neomycin-resistant colonies obtained after stable transfections. […]
(C) Percentage of neomycin-resistant colonies counted 2 to 3 weeks after transfection and G418 selection of HeLa (dashed bars) and K562 (black bars) cells. […]

B1: Ins2: 7 direct repeats of the CTF/NF1 binding site from adenovirus type II origin of replication, 5 bp spacing (nucleic acid)
DNA: ATCGATAAGCTTGCATTGGCAACGTGCCATAAGCATTGGCAACGTGCCATAAGCATTGGCAACGTGCCATAAGCATTGGCAACGTGCCATAAGCATTGGCAACGTGCCATAAGCATTGGCAACGTGCCATAAGCATTGGCAACGTGCCATAAGCGGGGGGATCC
modifications: 7xCTF/NF1 from adenovirus type II
Consider B1, for which the “occurrence of colonies of neomycin-resistant cells” value is given as “significantly reduced the occurrence of colonies of neomycin-resistant cells”.
